The source of these data is patent US20250360126.

The subject of data set [1] is T1, NPM2 (embryonic NPM1 paralog).
T1 sequence (Q86SE8 1-214, species assumed, looked up): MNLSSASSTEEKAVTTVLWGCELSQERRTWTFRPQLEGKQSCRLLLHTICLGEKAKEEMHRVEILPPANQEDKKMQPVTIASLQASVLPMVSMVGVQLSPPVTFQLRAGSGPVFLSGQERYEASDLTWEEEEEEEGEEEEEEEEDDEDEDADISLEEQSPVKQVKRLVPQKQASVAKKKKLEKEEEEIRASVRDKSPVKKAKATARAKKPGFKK

Data set [2] deals with Nap1 histone chaperone (a TTLL4 substrate protein).
The target in data set [3] is Nucleophosmin NPM1, wild type, full-length (UniProt P06748).
Chain of Nucleophosmin NPM1, wild type, full-length (P06748 whole entry): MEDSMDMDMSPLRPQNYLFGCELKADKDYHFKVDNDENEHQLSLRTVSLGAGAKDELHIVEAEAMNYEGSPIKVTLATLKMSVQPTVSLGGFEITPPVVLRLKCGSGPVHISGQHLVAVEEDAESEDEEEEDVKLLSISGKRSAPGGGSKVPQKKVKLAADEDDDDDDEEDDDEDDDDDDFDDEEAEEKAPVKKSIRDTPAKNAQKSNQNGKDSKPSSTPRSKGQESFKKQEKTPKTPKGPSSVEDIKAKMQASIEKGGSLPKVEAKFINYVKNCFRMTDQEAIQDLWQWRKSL

As to “active human TTLL4 enzyme (Tubulin-Tyrosine Ligase Like 4), recombinant”, in data set [1], the in vitro glutamate-glutamylation result is “capable of catalyzing in vitro glutamate-glutamylation of Npm1, Npm2, and Nap1 histone chaperone substrates (not shown)”. In data set [2], the in vitro glutamate-glutamylation result is “capable of catalyzing in vitro glutamate-glutamylation of Npm1, Npm2, and Nap1 histone chaperone substrates (not shown)”; the “kinase reaction, 32P-labeled phosphorylation (FIG. 7B)” value was “TTLL4 dependent 32P-labeled phosphorylation of Nap1 (a TTLL4 substrate protein)”. In data set [3], the “glutamate-glutamylation of substrate (FIG. 2B)” value is “TTLL4 glutamylates full-length NPM1”; the in vitro glutamate-glutamylation entry was “capable of catalyzing in vitro glutamate-glutamylation of Npm1, Npm2, and Nap1 histone chaperone substrates (not shown)”; the “in vitro glutamate-glutamylation, immunoblot time course (FIG. 10)” value was “AML-mutant NPM1c is a better in vitro substrate for TTLL4 than the wildtype NPM1”. In the data set on NPM1c (AML-mutant NPM1), the “in vitro glutamate-glutamylation, immunoblot time course (FIG. 10)” value is recorded as “AML-mutant NPM1c is a better in vitro substrate for TTLL4 than the wildtype NPM1”.
